Measured values taken from patent publication US20060292657A1, “Phex substrates and methods using same” (priority 2003, published 2006).
Marks after values point to notes of the source that are not given here.

What was measured:
Assay in all cases: Kinetic parameters for hydrolysis of internally quenched fluorogenic peptides by secPHEX
Assay type in all cases: biochemical, human
[1] = substrate: CC(C)[C@H](NC(=O)[C@H](CC(=O)O)NC(=O)[C@H](Cc1ccc(O)cc1)NC(=O)CNC(=O)[C@H](CC(N)=O)NC(=O)c1ccccc1N)C(=O)N[C@@H](Cc1ccc(O)cc1)C(=O)N[C@@H](Cc1c[nH]cn1)C(=O)N[C@@H](CCC(N)=O)C(=O)NCCNc1ccc([N+](=O)[O-])cc1[N+](=O)[O-]; conditions: other: 37° C., 10 mM Bis-Tris buffer pH 5.5, 150 mM NaCl
Summary of the method: (§1)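 Purified human recombinant secPHEX hydrolysing internally quenched fluorogenic peptides at 37° C in 10 mM Bis-Tris pH 5.5, 150 mM NaCl; fluorescence (ex 320, em 420 nm) followed continuously, <5% substrate hydrolysed, inner-filter corrected. Km and kcat by non-linear regression; kcat/Km under [S]<<Km where applicable.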

[2] = substrate: C[C@H](NC(=O)[C@H](CCC(N)=O)NC(=O)[C@H](CO)NC(=O)[C@H](CC(=O)O)NC(=O)[C@H](CCCNC(=N)N)NC(=O)[C@H](CCC(N)=O)NC(=O)[C@@H]1CCCN1C(=O)CNC(=O)c1ccccc1N)C(=O)N[C@@H](CCC(N)=O)C(=O)NCCNc1ccc([N+](=O)[O-])cc1[N+](=O)[O-]; conditions: other: 37° C., 10 mM Bis-Tris buffer pH 5.5, 150 mM NaCl
Summary of the method: as §1

[3] = substrate: N=C(N)NCCC[C@H](NC(=O)c1ccccc1N)C(=O)N[C@@H](CCCNC(=N)N)C(=O)N[C@@H](CC(=O)O)C(=O)N[C@@H](CC(=O)O)C(=O)N[C@@H](CO)C(=O)N[C@@H](CO)C(=O)N[C@@H](CCC(=O)O)C(=O)N[C@@H](CCC(N)=O)C(=O)NCCNc1ccc([N+](=O)[O-])cc1[N+](=O)[O-]; conditions: other: 37° C., 10 mM Bis-Tris buffer pH 5.5, 150 mM NaCl
Summary of the method: as §1

[4] = substrate: NC(=O)CC[C@H](NC(=O)[C@H](CO)NC(=O)CNC(=O)[C@H](CO)NC(=O)[C@H](CC(=O)O)NC(=O)[C@H](CO)NC(=O)[C@H](CO)NC(=O)c1ccccc1N)C(=O)NCCNc1ccc([N+](=O)[O-])cc1[N+](=O)[O-]; conditions: other: 37° C., 10 mM Bis-Tris buffer pH 5.5, 150 mM NaCl
Summary of the method: as §1

[5] = substrate: Nc1ccccc1C(=O)NCC(=O)N[C@@H](Cc1ccccc1)C(=O)N[C@@H](CO)C(=O)N[C@@H](CCC(=O)O)C(=O)N[C@@H](Cc1ccc(O)cc1)C(=O)N[C@@H](CCCCNc1ccc([N+](=O)[O-])cc1[N+](=O)[O-])C(=O)O; conditions: other: 37° C., 10 mM Bis-Tris buffer pH 5.5, 150 mM NaCl, [S]<<Km
Summary of the method: as §1

B1: human recombinant secPHEX (Homo sapiens) (protein)
chain: SLQAKQEYCLKPECIEAAAAILSKVNLSVDPCDNFFRFACDGWISNNPIPEDMPSYGVYPWLRHNVDLKLKELLEKSISRRRDTEAIQKAKILYSSCMNEKAIEKADAKPLLHILRHSPFRWPVLESNIGPEGVWSERKFSLLQTLATFRGQYSNSVFIRLYVSPDDKASNEHILKLDQATLSLAVREDYLDNSTEAKSYRDALYKFMVDTAVLLGANSSRAEHDMKSVLRLEIKIAEIMIPHENRTSEAMYNKMNISELSAMIPQFDWLGYIKKVIDTRLYPHLKDISPSENVVVRVPQYFKDLFRILGSERKKTIANYLVWRMVYSRIPNLSRRFQYRWLEFSRVIQGTTTLLPQWDKCVNFIESALPYVVGKMFVDVYFQEDKKEMMEELVEGVRWAFIDMLEKENEWMDAGTKRKAKEKARAVLAKVGYPEFIMNDTHVNEDLKAIKFSEADYFGNVLQTRKYLAQSDFFWLRKAVPKTEWFTNPTTVNAFYSASTNQIRFPAGELQKPFFWGTEYPRSLSYGAIGVIVGHEFTHGFDNNGRKYDKNGNLDPWWSTESEEKFKEKTKCMINQYSNYYWKKAGLNVKGKRTLGENIADNGGLREAFRAYRKWINDRRQGLEEPLLPGITFTNNQLFFLSYAHVRCNSYRPEAAREQVQIGAHSPPQFRVNGAISNFEEFQKAFNCPPNSTMNRGMDSCRLW
notes: pure soluble form of PHEX (secPHEX); made in house
Km [1]: 9.0 µM
kcat [1]: 0.01 s⁻¹
kcat/Km [1]: 1100 M⁻¹ s⁻¹
Km [2]: 47.0 µM
kcat [2]: 0.2 s⁻¹
kcat/Km [2]: 4300 M⁻¹ s⁻¹
Km [3]: 5.3 µM
kcat [3]: 0.5 s⁻¹
kcat/Km [3]: 94300 M⁻¹ s⁻¹
Km [4]: 31.6 µM
kcat [4]: 0.2 s⁻¹
kcat/Km [4]: 7100 M⁻¹ s⁻¹
kcat/Km [5]: 9.0* mM^−1 s^−1
